Substrate in the series: O=[N+]([O-])c1ccc(O[C@H]2O[C@H](CO)[C@H](O)[C@H](O)[C@H]2O)cc1
Nature of the series: purified protein. It is filed as biochemical, Pseudoalteromonas sp. KMM 701. Particulars: sodium phosphate (0.05 M in table footnote, 0.1 M in methods), pH 7.0, 20 °C.

The term Km denotes the concentration of substrate that gives half-maximal velocity. The term Vmax denotes the rate approached at saturating substrate. A word on the kcat: it is the maximal rate divided by the concentration of active sites. In general, kcat/Km refers to the turnover number divided by the Michaelis constant.

Substitutions are numbered along the chain they refer to. Names and notes keep the numbering of the source.

B1: α-PsGal (Pseudoalteromonas sp. KMM 701) (protein)
chain: MADTKSFYRLDSVNSTVIFDCQSKTPALLYFGKRLSEQTTETMLTQLATRQEVKCAVVEEAPISLSPLLGEGFTGAPGLELVNDSIAWSVGPELQEVRQPSSATVEFVSVDKLRGIEVVHSITLDNNSDVLSAHTVLTNLGDSPLSVNFCAAPTFQLPDSVSKIVSFEGRWSNEFQRQSVDLVLGSFVRENRKGKTSHDVFPGLLVHNENAGEQHGECYGFHLGWSGNNKLRAELLAEGRRYVQMGELLLPGELTLAKGQTYQSPSIYGSFSSEGFSALSRNFHRFVKANLLSQAQREKARPVHYNTWEGIYFDHDVDTLKQLADKVAPLGIERFVLDDGWFKGRRGDNAGLGDWTVDYKIYPDGLSPVIDHVNSLGMEFGIWFEPEMVNPDSDLYRAHPDWVLGSENNEQLSFRNQLVLDLTRSEVVEYLYKAIDDILVEYPTIKYIKWDMNRDINHAGNFDGKPAVHQQTLALYRLIDRIKAAHPGLEIESCSSGGARVDYGVLAHTDRVWTSDSNDALDRLEIQRGCSFFFPSSVMGAHVGPRDCHITGRNVSIEMRAAVSMFGHMGIEMDPRELNDHEYNALKAAIALHKEHREFIHSADLYRLDSDDLSINFGLIDAQKTKALFAYNSVRETPRTAPNKLRFVGLDADAQYTLNLVWPVKFEEYRPSSIAAVNGQTFTGEALMQFGLQMPISFPQTSLIFELNKA
notes: mature ca. 80 kDa; E. coli Rosetta (DE3); GH36
As for B1, the Km is 400 ± 30 µM, the Vmax worked out at 320 µM/min, the kcat was determined as 324 ± 3.5 s⁻¹ and the kcat/Km was determined as 820000 M⁻¹ s⁻¹.

B2: α-PsGal (Pseudoalteromonas sp. KMM 701; C494N) (protein)
chain: B1 chain with C494N
notes: as for B1
As to B2, the Michaelis-Menten constant (Km) worked out at 300 ± 5 µM and the Vmax stood at 24 µM/min.

Source of the values: publication PMC6213131, “Characterization of Properties and Transglycosylation Abilities of Recombinant α-Galactosidase from Cold-Adapted Marine Bacterium Pseudoalteromonas KMM 701 and Its C494N and D451A Mutants” (Marine Drugs, 2018).
